In article PMC2225174 (Acta Crystallographica Section F, 2006):

Biological target: T1, SsoPCNA1 (Sulfolobus solfataricus, UniProt P57766 1-249)
T1 sequence (looked up): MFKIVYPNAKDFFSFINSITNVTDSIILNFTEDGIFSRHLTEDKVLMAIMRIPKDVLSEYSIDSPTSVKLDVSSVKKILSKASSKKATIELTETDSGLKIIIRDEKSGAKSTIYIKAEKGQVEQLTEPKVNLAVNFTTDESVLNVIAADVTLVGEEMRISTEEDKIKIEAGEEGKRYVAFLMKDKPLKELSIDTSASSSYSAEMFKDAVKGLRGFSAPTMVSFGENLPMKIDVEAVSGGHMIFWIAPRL
Assay: crystal structure

- binding result: binds
B1: SsoPCNA2 (natural protein, Sulfolobus solfataricus, UniProt Q97Z84 1-245, looked up)
chain: MKAKVIDAVSFSYILRTVGDFLSEANFIVTKEGIRVSGIDPSRVVFLDIFLPSSYFEGFEVSQEKEIIGFKLEDVNDILKRVLKDDTLILSSNESKLTLTFDGEFTRSFELPLIQVESTQPPSVNLEFPFKAQLLTITFADIIDELSDLGEVLNIHSKENKLYFEVIGDLSTAKVELSTDNGTLLEASGADVSSSYGMEYVANTTKMRRASDSMELYFGSQIPLKLRFKLPQEGYGDFYIAPRAD
